This assay has as its target T1, CTDNEP1ΔAH as it stands in the crystallized CTDNEP1ΔAH-linker-sNEP1R1-His6 fusion (human, UniProt O95476 40-244).
T1 sequence (looked up): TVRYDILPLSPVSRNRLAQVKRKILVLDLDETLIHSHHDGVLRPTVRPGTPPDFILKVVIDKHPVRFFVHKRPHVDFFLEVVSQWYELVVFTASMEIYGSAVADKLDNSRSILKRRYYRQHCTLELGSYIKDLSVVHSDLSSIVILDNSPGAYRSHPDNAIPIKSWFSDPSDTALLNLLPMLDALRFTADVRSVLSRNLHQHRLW
Description: crystal structure.

Here are results for 1 molecule from paper PMC11145253 (Proceedings of the National Academy of Sciences of the …, 2024).

Turning to GSAKGSES [linker peptide of the CTDNEP1ΔAH-linker-sNEP1R1-His6 fusion], the binding result is “binds”.
